The target in data set [1] is T1, Insulin receptor (IR) (Homo sapiens, UniProt P06213-2;P06213-2 P06213-2:28-746,P06213-2:751-944). As to the kind of experiment: filter; +/-0.78; same buffer, 5 mM MgCl2, 37 C. The following applies: tags: His-tagged; R&D Systems Cat# 1544-IR; chain copies: 2; label: 5'-32P. How it is done:
(§1) Aptamers identified using the above SELEX process were amplified by PCR and cloned as described above. Up to fifty randomly picked plasmid clones were sequenced. To verify that cloned aptamers bind to IR or ERBB2, aptamers that had same sequence in the aptamer pool were tested for binding affinity. Briefly, aptamers were incubated with various concentrations of target His-tagged proteins and the target His-tagged proteins were captured on Talon bead. Radio labeled aptamers that were bound to target proteins were then detected by phosphoimager.
(§2) Specifically, Aptamer-protein equilibrium dissociation constants (Kd's) were determined by the nitrocellulose-filter binding method as described by White et al. in Mol. Ther., 2001, 4(6), 567-73. For all binding assays, aptamers were dephosphorylated using alkaline phosphatase (New England Biolab) and labeled at the 5′-end using T4 polynucleotide kinase (New England Biolabs, Beverly, Mass.) and [γ³²P]ATP (Amersham Pharmacia Biotech, Piscataway, N.J.) as described by Fitzwater et al., in Methods Enzymol, 1996, 267, 275-301. […] The fraction of bound aptamer was quantified with a PhosphorImager (Fuji FLA-5100 Image Analyzer, Tokyo, Japan). […]

Data set [2] has as its target T2, ERBB2 (HER2) (UniProt P04626 P04626:23-652). As to the kind of experiment: filter; +/-0.20; same buffer, 37 C; not competing with ERBB2-12. The following applies: tags: His-tagged; R&D Systems Cat# 1129-ER; label: 5'-32P.
Data set [3] addresses T2, ERBB2 (HER2). The experiment in a line: filter; +/-0.12; 40 mM HEPES pH 7.5, 120 mM NaCl, 5 mM KCl, 5 mM MgCl2, 0.002% tween-20, 37 C. As to conditions: tags: His-tagged; R&D Systems Cat# 1129-ER; label: 5'-32P. As to the method:
as §1, §2

Data set [4] has as its target T1, Insulin receptor (IR). As to the kind of experiment: filter; +/-0.28; same buffer, 5 mM MgCl2, 37 C. The following applies: tags: His-tagged; R&D Systems Cat# 1544-IR; chain copies: 2; label: 5'-32P. How it is done: as §1, §2
Data set [5] concerns the target T2, ERBB2 (HER2). As to the kind of experiment: filter; +/-1.25; same buffer, 37 C. The following applies: tags: His-tagged; R&D Systems Cat# 1129-ER; label: 5'-32P. As to the method: as §1, §2
Data set [6] has as its target T2, ERBB2 (HER2). The experiment in a line: filter; +/-0.39; same buffer, 37 C. As to conditions: tags: His-tagged; R&D Systems Cat# 1129-ER; label: 5'-32P. As to the method:
as §1, §2

Data set [7] concerns the target T1, Insulin receptor (IR). As to the kind of experiment: FP; placeholder. As to conditions: tags: His-tagged; R&D Systems Cat# 1544-IR; chain copies: 2; label: 5'-32P.
Data set [8] concerns the target T1, Insulin receptor (IR). The experiment in a line: filter; +/-1.08; 40 mM HEPES pH 7.5, 120 mM NaCl, 5 mM KCl, 5 mM MgCl2, 0.002% tween-20, 37 C; not competing with IR-13. The following applies: tags: His-tagged; R&D Systems Cat# 1544-IR; chain copies: 2; label: 5'-32P.
Data set [9] has as its target T1, Insulin receptor (IR). As to the kind of experiment: filter; +/-0.26; same buffer, 5 mM MgCl2, 37 C. The following applies: tags: His-tagged; R&D Systems Cat# 1544-IR; chain copies: 2; label: 5'-32P. As to the method: as §1, §2

T1 sequence (P06213 other isoform, or with tags, fused parts or gaps, chain 1 of 2): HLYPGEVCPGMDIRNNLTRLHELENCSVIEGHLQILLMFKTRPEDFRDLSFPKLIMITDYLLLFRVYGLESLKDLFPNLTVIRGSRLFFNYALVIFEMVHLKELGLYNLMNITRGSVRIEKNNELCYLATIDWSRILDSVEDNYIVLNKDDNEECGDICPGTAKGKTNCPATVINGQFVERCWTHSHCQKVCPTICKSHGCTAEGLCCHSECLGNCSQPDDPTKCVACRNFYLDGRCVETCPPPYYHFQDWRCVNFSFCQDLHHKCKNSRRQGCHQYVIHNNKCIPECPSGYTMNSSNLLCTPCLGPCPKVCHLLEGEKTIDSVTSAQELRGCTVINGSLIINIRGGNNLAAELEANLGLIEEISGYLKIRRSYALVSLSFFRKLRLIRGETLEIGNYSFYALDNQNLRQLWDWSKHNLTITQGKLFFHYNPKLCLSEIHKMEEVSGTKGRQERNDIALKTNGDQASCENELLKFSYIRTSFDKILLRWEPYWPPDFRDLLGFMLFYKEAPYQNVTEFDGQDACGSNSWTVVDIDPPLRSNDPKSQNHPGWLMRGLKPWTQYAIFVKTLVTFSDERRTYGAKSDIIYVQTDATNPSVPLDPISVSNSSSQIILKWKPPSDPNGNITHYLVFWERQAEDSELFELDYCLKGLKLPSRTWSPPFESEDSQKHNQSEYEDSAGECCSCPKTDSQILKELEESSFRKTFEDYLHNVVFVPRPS
T1 sequence (P06213 763-956, chain 2 of 2): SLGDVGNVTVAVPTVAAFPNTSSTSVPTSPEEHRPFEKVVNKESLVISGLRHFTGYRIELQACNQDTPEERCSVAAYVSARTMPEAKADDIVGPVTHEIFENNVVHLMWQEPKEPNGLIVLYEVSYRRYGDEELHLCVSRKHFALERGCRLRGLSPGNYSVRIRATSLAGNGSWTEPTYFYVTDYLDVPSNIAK

B1: IR-13 (ssDNA)
DNA: GAGTGACCGTCTGCCTGTTATCCACTATGGCTTCTCATTCAAATAAGTGCGATCGATCAGCCACACCACCAGCC
What is called Kd is the constant that tells how readily two partners part at equilibrium. High values mean lower affinity, low ones higher affinity. Molecule B1 gave a Kd with Insulin receptor (IR) [1] of 4.83 nM.

B2: ERBB2-1 (ssDNA)
DNA: GAGTGACCGTCTGCCTGATGTTAGAGTTTGCCTGAGTGCCTCGTAAGGGCGTAACAACAGCCACACCACCAGCC
As to B2, the Kd with ERBB2 (HER2) [2] is 3.05 nM.

B3: ERBB2-12 (ssDNA)
DNA: GAGTGACCGTCTGCCTGTCCTGGCATGTTCGATGGAGGCCTTTGATTACAGCCCAGACAGCCACACCACCAGCC
B3 came in with a Kd with ERBB2 (HER2) [3] of 0.78 nM.

B4: IR-25 (ssDNA)
DNA: GAGTGACCGTCTGCCTGAGATCCGACTGTTTACTGTTTAACAGCCGGCTGATGGACCCAGCCACACCACCAGCC
Regarding B4, the affinity in the data set with Insulin receptor (IR) [4], expressed as Kd, was 13.3 nM.

B5: ERBB2-19 (ssDNA)
DNA: GAGTGACCGTCTGCCTGATTAGATGAAAGCGCATTCCAACAACAGATAATCTGAGGGCAGCCACACCACCAGCC
In turn, B5 came in with a Kd in the data set with ERBB2 (HER2) [5] of 15.8 nM.

B6: ERBB2-10 (ssDNA)
DNA: GAGTGACCGTCTGCCTGGTTAGACTGAACGCACTGAGGGCCGCAGCCTATCTGAAGGCAGCCACACCACCAGCC
B6 gave a Kd in the data set with ERBB2 (HER2) [6] of 3.7 nM.

B7: IR-6 (ssDNA)
DNA: GAGTGACCGTCTGCCTGTGGGTACAGTCTTTAGCTTACACAGGCTCCTGAAGACGCACAGCCACACCACCAGCC
With B7, the Kd in the data set with Insulin receptor (IR) [7] and in the data set with Insulin receptor (IR) [8] was 4.6 nM each time.

B8: IR-11 (ssDNA)
DNA: GAGTGACCGTCTGCCTGTAAGGTTTAAGCTTGGCCTAATGGTGCTATCAGGCTCAGCAGCCACACCACCAGCC
In the case of B8, in the data set with Insulin receptor (IR) [9], the Kd amounted to 5.48 nM.

For the origin of these results see patent US20110262922, “APTAMER SANDWICH ASSAYS” (POSCO, published 2011).
